Residue numbers refer to the chain shown, from its start.
T1: His-tagged recombinant Cynomolgus FAPα (Acro Biosystems, Cat #FAP-C52H3-100ug) (cynomolgus monkey, UniProt A0A2K5VGF4 26-760)
T1 construct: Bought reagent; also called recombinant cynomolgus monkey FAPα; not shown: His tag of the vendor's construct (Acro Biosystems FAP-C52H3)
T1 sequence: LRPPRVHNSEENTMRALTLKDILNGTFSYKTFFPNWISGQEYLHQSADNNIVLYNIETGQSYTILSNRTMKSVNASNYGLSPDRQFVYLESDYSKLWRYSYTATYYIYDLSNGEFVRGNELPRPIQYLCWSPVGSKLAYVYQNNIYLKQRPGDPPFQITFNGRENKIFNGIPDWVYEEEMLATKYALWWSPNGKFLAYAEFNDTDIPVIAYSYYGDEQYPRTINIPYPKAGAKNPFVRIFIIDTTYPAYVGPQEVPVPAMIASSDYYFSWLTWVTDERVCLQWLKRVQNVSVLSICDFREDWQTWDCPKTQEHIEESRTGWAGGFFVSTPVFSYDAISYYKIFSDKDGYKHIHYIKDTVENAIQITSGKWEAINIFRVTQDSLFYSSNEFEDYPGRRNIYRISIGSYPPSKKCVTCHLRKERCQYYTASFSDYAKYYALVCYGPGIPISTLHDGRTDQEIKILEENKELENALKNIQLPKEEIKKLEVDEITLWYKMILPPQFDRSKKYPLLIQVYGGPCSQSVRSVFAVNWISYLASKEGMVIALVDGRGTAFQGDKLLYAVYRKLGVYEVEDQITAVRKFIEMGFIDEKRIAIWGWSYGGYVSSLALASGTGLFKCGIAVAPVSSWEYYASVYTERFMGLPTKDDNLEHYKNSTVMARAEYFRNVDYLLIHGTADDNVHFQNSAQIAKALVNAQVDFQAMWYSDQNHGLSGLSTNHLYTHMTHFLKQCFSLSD

T2: His-tagged recombinant Human FAPα (Acro Biosystems, Cat #FAP-H5244-100ug) (human, UniProt Q12884 26-760)
T2 construct: Bought reagent; not shown: His tag
T2 sequence (looked up): T1 sequence with P4S, F236V, D392E

T3: human DR4 (Death Receptor 4), cell surface expressed on human tumor cell lines (human, UniProt O00220 24-468)
T3 construct: also called TNFRSF10A; TRAIL-R1
T3 sequence: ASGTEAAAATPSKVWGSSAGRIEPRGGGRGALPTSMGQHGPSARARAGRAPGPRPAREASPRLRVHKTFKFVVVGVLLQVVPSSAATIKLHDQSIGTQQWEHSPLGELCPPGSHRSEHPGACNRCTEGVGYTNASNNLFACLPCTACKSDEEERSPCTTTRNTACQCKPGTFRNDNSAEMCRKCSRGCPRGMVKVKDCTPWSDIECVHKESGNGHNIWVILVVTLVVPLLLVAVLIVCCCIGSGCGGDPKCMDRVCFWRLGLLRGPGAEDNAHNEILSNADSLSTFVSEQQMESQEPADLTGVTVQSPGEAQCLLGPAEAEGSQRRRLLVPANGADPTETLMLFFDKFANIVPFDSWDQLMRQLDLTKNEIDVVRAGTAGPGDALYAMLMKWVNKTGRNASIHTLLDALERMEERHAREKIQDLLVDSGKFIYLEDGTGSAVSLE

B1: BisG1-b12-FERL/DR4-FERR (bispecific antibody, human IgG1, kappa, lambda)
heavy 1: QVQLVQSGAEVKKPGASVKVSCQASGYRFSNFVIHWVRQAPGQRFEWMGWINPYNGNKEFSAKFQDRVTFTADTSANTAYMELRSLRSADTAVYYCARVGPYSWDDSPQDNYYMDVWGKGTTVIVSSASTKGPSVFPLAPSSKSTSGGTAALGCLVKDYFPEPVTVSWNSGALTSGVHTFPAVLQSSGLYSLSSVVTVPSSSLGTQTYICNVNHKPSNTKVDKRVEPKSCDKTHTCPPCPAPEFERGPSVFLFPPKPKDTLMISRTPEVTCVVVDVSHEDPEVKFNWYVDGVEVHNAKTKPREEQYNSTYRVVSVLTVLHQDWLNGKEYKCKVSNKALPAPIEKTISKAKGQPREPQVYTLPPSREEMTKNQVSLTCLVKGFYPSDIAVEWESNGQPENNYKTTPPVLDSDGSFLLYSKLTVDKSRWQQGNVFSCSVMHEALHNHYTQKSLSLSPG
light 1: EIVLTQSPGTLSLSPGERATFSCRSSHSIRSRRVAWYQHKPGQAPRLVIHGVSNRASGISDRFSGSGSGTDFTLTITRVEPEDFALYYCQVYGASSYTFGQGTKLERKRTVAAPSVFIFPPSDEQLKSGTASVVCLLNNFYPREAKVQWKVDNALQSGNSQESVTEQDSKDSTYSLSSTLTLSKADYEKHKVYACEVTHQGLSSPVTKSFNRGEC
heavy 2: QVQLQESGPGLVKPSGTLSLTCAVSGGSISSYSWWSWIRQPPGKGLEWIGELYHSGSTNYNPSLKSRVTISVDKSKNQFSLKLRSVTAADTAVYYCVRGVATIDYWGQGTLVTVSSASTKGPSVFPLAPSSKSTSGGTAALGCLVKDYFPEPVTVSWNSGALTSGVHTFPAVLQSSGLYSLSSVVTVPSSSLGTQTYICNVNHKPSNTKVDKRVEPKSCDKTHTCPPCPAPEFERGPSVFLFPPKPKDTLMISRTPEVTCVVVDVSHEDPEVKFNWYVDGVEVHNAKTKPREEQYNSTYRVVSVLTVLHQDWLNGKEYKCKVSNKALPAPIEKTISKAKGQPREPQVYTLPPSREEMTKNQVSLTCLVKGFYPSDIAVEWESNGQPENNYKTTPPVLDSDGSFFLYSRLTVDKSRWQQGNVFSCSVMHEALHNHYTQKSLSLSPG
light 2: QSALTQPPSASGSPGQSVTISCTGTSSDVGGYNFVSWYQQDPGKAPKLLIYEVTKRPSGVPDRFSGSKSGNTASLTVSGLQAEDEADYYCSSYAGSNNVMFGGGTKLTVLGQPKAAPSVTLFPPSSEELQANKATLVCLISDFYPGAVTVAWKADSSPVKAGVETTTPSKQSNNKYAASSYLSLTPEQWKSHRSYSCQVTHEGSTVEKTVAPTECS
notes: Fab-arm exchange of IgG1-b12-FERL and IgG1-DR4-FERR; also called bsIgG1-ctrl-FERLxDR4-FERR
B2: IgG1-DR4-FERR (antibody, V domains shown)
VH: QVQLQESGPGLVKPSGTLSLTCAVSGGSISSYSWWSWIRQPPGKGLEWIGELYHSGSTNYNPSLKSRVTISVDKSKNQFSLKLRSVTAADTAVYYCVRGVATIDYWGQGTLVTVSS
VL: QSALTQPPSASGSPGQSVTISCTGTSSDVGGYNFVSWYQQDPGKAPKLLIYEVTKRPSGVPDRFSGSKSGNTASLTVSGLQAEDEADYYCSSYAGSNNVMFGGGTKLTVLG
notes: Bivalent monoclonal IgG1 lambda

Columns and labels:
[1] = biological target: T1, His-tagged recombinant Cynomolgus FAPα …; test: BLI, antigen immobilized on AR2G sensors
Procedure: (§1) Experiments were carried out while shaking at 1,000 RPM at 30° C. Amine Reactive 2nd Generation (AR2G) biosensors (Sartorius, Cat #18-5092) were activated by reaction with 20 mM EDC (N-(3-Dimethylaminopropyl)-N′-ethylcarbodiimide hydrochloride) (Sigma-Aldrich, Cat #03449) and 10 mM s-NHS (N-hydroxysulfosuccinimide sodium salt) (Sigma-Aldrich, Cat #56485) for 300 s. The activated AR2G sensors were loaded with 2.5 μg/mL His-tagged recombinant Human FAPα (Acro Biosystems, Cat #FAP-H5244-100ug) in 10 mM Sodium Acetate pH 5.0 (Sartorius, Cat #18-1069) or 2.5 μg/mL His-tagged recombinant Cynomolgus FAPα (Acro Biosystems, Cat #FAP-C52H3-100ug) in 10 mM Sodium Acetate pH 5.0 for 600 s and quenched with 1 M ethanolamine pH 8.5 (Sartorius Cat #18-1071) for 300 s. After a baseline measurement in Sample Diluent (1000 s; Sartorius, Cat #18-1104), the association (100 s) and dissociation (4,000 s) of functionally monovalent antibody was determined using a concentration range of 0.78-800 nM with two-fold dilution steps in Sample Diluent. The molecular mass of the antibodies used for the calculations was calculated from the sequences.
(§2) The Y-axis was aligned to the last 10 s of the baseline; Interstep Correction alignment to dissociation and Savitzky-Golay filtering were applied. Data traces with a response <0.05 nm were excluded from analysis. […]

[2] = biological target: T2, His-tagged recombinant Human FAPα (Acro …); test: BLI, antigen immobilized on AR2G sensors
Procedure: as §1, §2

[3] = biological target: T3, human DR4 (Death Receptor 4), cell …; test: flow cytometry, HCT-15 cells, average ± SEM; HCT-15 cells, average of n = 3

Binder | binding result [1] | binding result [2] | EC50 [3] [µg/mL]
B1 | no binding (tested: 800 nM) | no binding (tested: 800 nM) | –
B2 | – | – | 0.17
